Reference: patent US10702592B2, “Peptides and combination of peptides for use in immunotherapy against NHL and other cancers” (Immatics Biotechnologies GmbH, priority 2016, dated 2020)

Each substance was assayed against HLA-A*02:01 (Homo sapiens, UniProt P04439, D140Y/D185E/D98H/E176V/E277Q/G131W/G231S/I119V/I121R/I166T/I218V/L300P/L318F/N151K/N90K/P208A/P217A/Q86G/Q94H/R138H/R169H/T345S) (assay: MHC binding assay (UV-ligand exchange, beta2m ELISA)). Conditions: binding to HLA-A*02:01, UV-ligand exchange.
Procedure, shortened: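 Exchange yield, UV-ligand exchange: 100-fold diluted samples on streptavidin plates, 1 h at 37 °C; HRP anti-β2m 1 h at 37 °C; TMB read at 450 nm.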
With “235 (SLDVYELFL; listed as Homo sapiens) [compound 235]” the “Peptide exchange (MHC class I binding score, peptide exchange yield)” value (“Peptide exchange” below) was ““+++” (≥50 = +++)”.
In the case of “236 (SLFDGFFLTA; listed as Homo sapiens) [compound 236]”, the “Peptide exchange” value is reported as ““++++” (≥75% = ++++)”.
With “237 (YLDRLIPQA; listed as Homo sapiens) [compound 237]” the “Peptide exchange” value was ““+++” (≥50 = +++)”.
In the case of “238 (YQYGAVVTL; listed as Homo sapiens) [compound 238]”, the “Peptide exchange” value is reported as ““+++” (≥50 = +++)”.
In the case of “239 (VLIDDTVLL; listed as Homo sapiens) [compound 239]”, the “Peptide exchange” value is reported as ““+++” (≥50 = +++)”.
In the case of “240 (ALVPTPALFYL; listed as Homo sapiens) [compound 240]”, the “Peptide exchange” value is reported as ““+++” (≥50 = +++)”.
For “241 (FIPDFIPAV; listed as Homo sapiens) [compound 241]”, the “Peptide exchange” value was ““++” (≥20% = ++)”.
“242 (GILDFZVFL; listed as Homo sapiens) [compound 242]” was tested, and the “Peptide exchange” value was ““++++” (≥75% = ++++)”.
With “243 (GLPDLDIYL; listed as Homo sapiens) [compound 243]” the “Peptide exchange” value was ““++++” (≥75% = ++++)”.
“244 (ILEPFLPAV; listed as Homo sapiens) [compound 244]” was tested, and the “Peptide exchange” value was ““+++” (≥50 = +++)”.
In the case of “245 (KLIQLPVVYV; listed as Homo sapiens) [compound 245]”, the “Peptide exchange” value is reported as ““+++” (≥50 = +++)”.
With “246 (KLPVPLESV; listed as Homo sapiens) [compound 246]” the “Peptide exchange” value was ““+++” (≥50 = +++)”.
In the case of “247 (KVLEMETTV; listed as Homo sapiens) [compound 247]”, the “Peptide exchange” value is reported as ““+++” (≥50 = +++)”.
“248 (NLLEQFILL; listed as Homo sapiens) [compound 248]” was tested, and the “Peptide exchange” value was ““+++” (≥50 = +++)”.
With “249 (VLLESLVEI; listed as Homo sapiens) [compound 249]” the “Peptide exchange” value was ““++++” (≥75% = ++++)”.
“250 (VLTNVGAAL; listed as Homo sapiens) [compound 250]” was tested, and the “Peptide exchange” value was ““+++” (≥50 = +++)”.
For “251 (VLYELFTYI; listed as Homo sapiens) [compound 251]”, the “Peptide exchange” value was ““+++” (≥50 = +++)”.
“252 (YLGDLIMAL; listed as Homo sapiens) [compound 252]” was tested, and the “Peptide exchange” value was ““+++” (≥50 = +++)”.
“255 (GMWNPNAPVFL; listed as Homo sapiens) [compound 255]” was tested, and the “Peptide exchange” value was ““++++” (≥75% = ++++)”.
In the case of “257 (FLQEWEVYA; listed as Homo sapiens) [compound 257]”, the “Peptide exchange” value is reported as ““++++” (≥75% = ++++)”.
With “259 (TVLDGLEFKV; listed as Homo sapiens) [compound 259]” the “Peptide exchange” value was ““++++” (≥75% = ++++)”.
“263 (GLMDNEIKV; listed as Homo sapiens) [compound 263]” was tested, and the “Peptide exchange” value was ““+++” (≥50 = +++)”.
In the case of “264 (ILTGTPPGV; listed as Homo sapiens) [compound 264]”, the “Peptide exchange” value is reported as ““+++” (≥50 = +++)”.
In the case of “265 (ILWHFVASL; listed as Homo sapiens) [compound 265]”, the “Peptide exchange” value is reported as ““++++” (≥75% = ++++)”.
In the case of “266 (QLTEMLPSI; listed as Homo sapiens) [compound 266]”, the “Peptide exchange” value is reported as ““++++” (≥75% = ++++)”.
With “267 (SLLETGSDLLL; listed as Homo sapiens) [compound 267]” the “Peptide exchange” value was ““+++” (≥50 = +++)”.
In the case of “268 (VLFPLPTPL; listed as Homo sapiens) [compound 268]”, the “Peptide exchange” value is reported as ““++++” (≥75% = ++++)”.
For “269 (VLQNVAFSV; listed as Homo sapiens) [compound 269]”, the “Peptide exchange” value was ““++++” (≥75% = ++++)”.
In the case of “270 (VVVDSDSLAFV; listed as Homo sapiens) [compound 270]”, the “Peptide exchange” value is reported as ““++++” (≥75% = ++++)”.
“271 (YLLDQPVLEQRL; listed as Homo sapiens) [compound 271]” was tested, and the “Peptide exchange” value was ““++++” (≥75% = ++++)”.
“272 (KLDHTLSQI; listed as Homo sapiens) [compound 272]” was tested, and the “Peptide exchange” value was ““++++” (≥75% = ++++)”.
In the case of “273 (AILLPQPPK; listed as Homo sapiens) [compound 273]”, the “Peptide exchange” value is reported as ““++” (≥20% = ++)”.
In the case of “274 (KLLNLISKL; listed as Homo sapiens) [compound 274]”, the “Peptide exchange” value is reported as ““++++” (≥75% = ++++)”.
In the case of “275 (KLMDLEDCAL; listed as Homo sapiens) [compound 275]”, the “Peptide exchange” value is reported as ““++++” (≥75% = ++++)”.
“276 (NMISYVVHL; listed as Homo sapiens) [compound 276]” was tested, and the “Peptide exchange” value was ““++” (≥20% = ++)”.
With “277 (FLIDLNSTHGTFL; listed as Homo sapiens) [compound 277]” the “Peptide exchange” value was ““+++” (≥50 = +++)”.
“278 (FLLFINHRL; listed as Homo sapiens) [compound 278]” was tested, and the “Peptide exchange” value was ““+++” (≥50 = +++)”.
In the case of “279 (NLAGENILNPL; listed as Homo sapiens) [compound 279]”, the “Peptide exchange” value is reported as ““+++” (≥50 = +++)”.
In the case of “280 (SLLNHLPYL; listed as Homo sapiens) [compound 280]”, the “Peptide exchange” value is reported as ““++++” (≥75% = ++++)”.
In the case of “281 (TLQTVPLTTV; listed as Homo sapiens) [compound 281]”, the “Peptide exchange” value is reported as ““++++” (≥75% = ++++)”.
“282 (YLLEQGAQV; listed as Homo sapiens) [compound 282]” was tested, and the “Peptide exchange” value was ““++++” (≥75% = ++++)”.
With “283 (ALMPVTPQA; listed as Homo sapiens) [compound 283]” the “Peptide exchange” value was ““+++” (≥50 = +++)”.
In the case of “284 (KLQEQIHRV; listed as Homo sapiens) [compound 284]”, the “Peptide exchange” value is reported as ““+++” (≥50 = +++)”.
“285 (SITAVTPLL; listed as Homo sapiens) [compound 285]” was tested, and the “Peptide exchange” value was ““+++” (≥50 = +++)”.
“286 (HLTEDTPKV; listed as Homo sapiens) [compound 286]” was tested, and the “Peptide exchange” value was ““+++” (≥50 = +++)”.
For “287 (ILMGHSLYM; listed as Homo sapiens) [compound 287]”, the “Peptide exchange” value was ““++++” (≥75% = ++++)”.
For “288 (RLAPEIVSA; listed as Homo sapiens) [compound 288]”, the “Peptide exchange” value was ““+++” (≥50 = +++)”.
For “289 (SLLAANNLL; listed as Homo sapiens) [compound 289]”, the “Peptide exchange” value was ““++++” (≥75% = ++++)”.
For “290 (IASPVIAAV; listed as Homo sapiens) [compound 290]”, the “Peptide exchange” value was ““+++” (≥50 = +++)”.
With “291 (KIIDTAGLSEA; listed as Homo sapiens) [compound 291]” the “Peptide exchange” value was ““+++” (≥50 = +++)”.
In the case of “292 (KLINSQISL; listed as Homo sapiens) [compound 292]”, the “Peptide exchange” value is reported as ““+++” (≥50 = +++)”.
With “293 (GLAMVEAISYV; listed as Homo sapiens) [compound 293]” the “Peptide exchange” value was ““++++” (≥75% = ++++)”.
In the case of “294 (KLYGPEGLELV; listed as Homo sapiens) [compound 294]”, the “Peptide exchange” value is reported as ““++++” (≥75% = ++++)”.
In the case of “295 (SLAAVSQQL; listed as Homo sapiens) [compound 295]”, the “Peptide exchange” value is reported as ““+++” (≥50 = +++)”.
For “296 (FILEPLYKI; listed as Homo sapiens) [compound 296]”, the “Peptide exchange” value was ““++++” (≥75% = ++++)”.
“297 (ILQNGLETL; listed as Homo sapiens) [compound 297]” was tested, and the “Peptide exchange” value was ““+++” (≥50 = +++)”.
With “298 (ALTDVILCV; listed as Homo sapiens) [compound 298]” the “Peptide exchange” value was ““++++” (≥75% = ++++)”.
In the case of “299 (RLLEEEGVSL; listed as Homo sapiens) [compound 299]”, the “Peptide exchange” value is reported as ““+++” (≥50 = +++)”.
With “300 (IVLERNPEL; listed as Homo sapiens) [compound 300]” the “Peptide exchange” value was ““+++” (≥50 = +++)”.
With “301 (LQFDGIHVV; listed as Homo sapiens) [compound 301]” the “Peptide exchange” value was ““+++” (≥50 = +++)”.
With “302 (SLAELDEKISA; listed as Homo sapiens) [compound 302]” the “Peptide exchange” value was ““+++” (≥50 = +++)”.
In the case of “303 (FVWEASHYL; listed as Homo sapiens) [compound 303]”, the “Peptide exchange” value is reported as ““++++” (≥75% = ++++)”.
For “304 (ALIRLDDLFL; listed as Homo sapiens) [compound 304]”, the “Peptide exchange” value was ““+++” (≥50 = +++)”.
“305 (AMLAQQMQL; listed as Homo sapiens) [compound 305]” was tested, and the “Peptide exchange” value was ““+++” (≥50 = +++)”.
For “306 (AQVALVNEV; listed as Homo sapiens) [compound 306]”, the “Peptide exchange” value was ““+++” (≥50 = +++)”.
With “307 (FLLPVAVKL; listed as Homo sapiens) [compound 307]” the “Peptide exchange” value was ““+++” (≥50 = +++)”.
